# Laboratory results published in patent publication EP4775675A1 (Shanghai Hongcheng Biopharmaceutical Co., Ltd., dated 2026).
# Positions count from the first letter of the chain named.
# T1: Human BDCA-2 protein (soluble, Octet analyte) (human, UniProt Q8WTT0 45-213, limits assumed)
# T1 construct: Soluble protein used as analyte in BLI
# T1 sequence (looked up): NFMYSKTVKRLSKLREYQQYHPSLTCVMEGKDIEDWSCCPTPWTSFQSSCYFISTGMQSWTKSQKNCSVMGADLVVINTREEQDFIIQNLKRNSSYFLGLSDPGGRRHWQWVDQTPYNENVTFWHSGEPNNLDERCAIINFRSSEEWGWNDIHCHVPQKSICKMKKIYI
# T2: human CLEC4E (human, UniProt Q9ULY5 41-219, limits assumed)
# T2 sequence (looked up): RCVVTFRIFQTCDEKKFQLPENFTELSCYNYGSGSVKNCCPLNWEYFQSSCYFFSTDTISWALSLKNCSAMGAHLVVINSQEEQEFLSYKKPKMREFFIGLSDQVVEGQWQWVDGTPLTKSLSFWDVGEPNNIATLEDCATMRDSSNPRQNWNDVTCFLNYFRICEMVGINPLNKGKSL
# T3: human CLEC4A (human, UniProt Q9UMR7 70-237, limits assumed)
# T3 sequence (looked up): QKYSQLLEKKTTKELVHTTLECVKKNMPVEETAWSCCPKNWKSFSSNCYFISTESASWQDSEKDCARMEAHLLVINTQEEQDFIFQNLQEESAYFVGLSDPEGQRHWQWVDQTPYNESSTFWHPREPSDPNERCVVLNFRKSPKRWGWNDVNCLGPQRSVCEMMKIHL
# T4: human CLEC4D (human, UniProt Q8WXI8 39-215, limits assumed)
# T4 sequence (looked up): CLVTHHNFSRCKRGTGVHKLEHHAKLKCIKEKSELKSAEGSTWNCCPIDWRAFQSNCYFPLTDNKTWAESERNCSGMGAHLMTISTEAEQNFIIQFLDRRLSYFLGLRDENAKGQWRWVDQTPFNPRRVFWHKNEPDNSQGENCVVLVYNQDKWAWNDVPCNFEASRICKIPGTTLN
# T5: human CLEC6A (human, UniProt Q6EIG7 42-209, limits assumed)
# T5 sequence (looked up): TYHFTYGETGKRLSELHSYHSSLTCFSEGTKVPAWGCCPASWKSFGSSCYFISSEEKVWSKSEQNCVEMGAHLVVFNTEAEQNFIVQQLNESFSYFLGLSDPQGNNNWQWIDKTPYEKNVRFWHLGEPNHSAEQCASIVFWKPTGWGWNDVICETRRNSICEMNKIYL
# T6: cynomolgus monkey BDCA-2 on cells (Jurkat-cynoBDCA-2 cells; cynomolgus monkey pDCs) (cynomolgus monkey, UniProt A0A2K5UWP4 1-212)
# T6 construct: whole, on cells
# T6 sequence: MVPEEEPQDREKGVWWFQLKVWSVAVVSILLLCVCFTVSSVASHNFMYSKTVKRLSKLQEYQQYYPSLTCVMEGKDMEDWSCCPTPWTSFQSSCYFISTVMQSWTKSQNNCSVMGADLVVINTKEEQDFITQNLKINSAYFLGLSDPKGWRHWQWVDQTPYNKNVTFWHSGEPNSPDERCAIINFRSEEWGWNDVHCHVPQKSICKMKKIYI
# T7: human BDCA-2 on cells (Jurkat-hBDCA-2 cells; human pDCs; human PBMCs) (human, UniProt Q8WTT0 1-213)
# T7 construct: whole, on cells; also called CD303; CLEC4C
# T7 sequence (looked up): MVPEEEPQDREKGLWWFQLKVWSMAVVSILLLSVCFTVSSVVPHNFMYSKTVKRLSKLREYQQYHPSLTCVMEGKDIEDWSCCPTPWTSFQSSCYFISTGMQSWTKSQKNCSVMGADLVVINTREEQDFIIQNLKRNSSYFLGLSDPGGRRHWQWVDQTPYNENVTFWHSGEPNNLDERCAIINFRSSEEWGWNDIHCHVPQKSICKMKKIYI
# B1: 17G6A2_hzH2L5_hIgG1 (antibody, V domains shown)
# VH: EVQLVESGGGLVKPGGSLRLSCAASGFTFSSYGMSWVRQAPGKGLEWVATISSGDSYTYYPDSVKGRFTISRDNAKNSLYLQMNSLRAEDTAVYYCARQLYYSYGYYFDYWGQGTTVTVSS
# VL: DIVLTQSPASLAVSPGQRATITCRASESVSFHGTHLMHWYQQKPGQPPKLLIYAASNLESGVPARFSGSGSGTDFTLTINPVEAEDTANYYCQQSIEDPPTFGGGTKVEIKR
# notes: Humanized, human IgG1/kappa (hzVH02 + hzVL05)
# B2: 17G6A2_hzH1L8_hIgG1 (antibody, V domains shown)
# VH: B1 VH with A49S
# VL: B1 VL with G72E, E85N, T87A
# notes: Humanized, human IgG1/kappa (hzVH01 + hzVL08); also called 17G6A2_hzHL8_hIgG1
# B3: 17G6A2_hzH2L6_hIgG1 (antibody, V domains shown)
# VH: B1 VH
# VL: B1 VL with E85N, T87A
# notes: Humanized, human IgG1/kappa (hzVH02 + hzVL06)
# B4: 17G6A2_hzH2L7_hIgG1 (antibody, V domains shown)
# VH: B1 VH
# VL: B1 VL with G72E
# notes: Humanized, human IgG1/kappa (hzVH02 + hzVL07)
# B5: 17G6A2_hzH2L8_hIgG1 (antibody, V domains shown)
# VH: B1 VH
# VL: B1 VL with G72E, E85N, T87A
# notes: Humanized, human IgG1/kappa (hzVH02 + hzVL08)
# B6: 17G6A2_hzH3L5_hIgG1 (antibody, V domains shown)
# VH: B1 VH with G44R
# VL: B1 VL
# notes: Humanized, human IgG1/kappa (hzVH03 + hzVL05)
# B7: 17G6A2_hzH3L6_hIgG1 (antibody, V domains shown)
# VH: B1 VH with G44R
# VL: B1 VL with E85N, T87A
# notes: Humanized, human IgG1/kappa (hzVH03 + hzVL06)
# B8: 17G6A2_hzH3L7_hIgG1 (antibody, V domains shown)
# VH: B1 VH with G44R
# VL: B1 VL with G72E
# notes: Humanized, human IgG1/kappa (hzVH03 + hzVL07)
# B9: 17G6A2_hzH3L8_hIgG1 (antibody, V domains shown)
# VH: B1 VH with G44R
# VL: B1 VL with G72E, E85N, T87A
# notes: Humanized, human IgG1/kappa (hzVH03 + hzVL08)
# B10: 17G6A2 (murine hybridoma monoclonal antibody) (antibody, V domains shown)
# VH: EVQLVESGGDLVKPGGSLKLSCAASGFTFSSYGMSWVRQTPDKRLEWVATISSGDSYTYYPDSVKGRFTISRDNAKNTLYLQMSSLKSEDTAMYYCARQLYYSYGYYFDYWGQGTTLTVSS
# VL: DIVLTQSPASLAVSLGQRATISCRASESVSFHGTHLMHWYQQKPGQPPKLLIYAASNLESGVPARFSGSGSETDFTLNIHPVEEEDAATYFCQQSIEDPPTFGGGTKLEIK
# notes: also called hybridoma 17G6A2; hybridoma antibody 17G6A2
# B11: 164C11B8_hzH1L1_hIgG1 (antibody, V domains shown)
# VH: EVQLLESGGGLVQPGGSLRLSCAASGFTFSTYTMSWVRQAPGKGLEWVSTINSGGDNTYYPDSVKGRFTISRDNSKNTLYLQMNSLRAEDTAVYYCATYRPYYYGSVLDYWGQGTTVTVSS
# VL: DIVMTQSPDSLAVSLGERATINCKASQSVDYDGNSYVNWYQQKPGQPPKLLIYGASNLESGVPDRFSGSGSGTDFTLTISSLQAEDVAVYYCQQSDEDPWTFGGGTKVEIKR
# B12: 164C11B8_hzH2L1_hIgG1 (antibody, V domains shown)
# VH: B11 VH with S49A
# VL: B11 VL
# B13: 164C11B8_hzH4L1_hIgG1 (antibody, V domains shown)
# VH: B11 VH with F27I, G44R, S49A
# VL: B11 VL
# B14: 164C11B8_hzH3L1_hIgG1 (antibody, V domains shown)
# VH: B11 VH with F27I, S49A
# VL: B11 VL
# Target: T1, Human BDCA-2 protein (soluble, Octet …)
# Experiment: BLI (Octet Red96e), antibody on anti-human IgG sensor, human BDCA-2 protein in solution
Binder,Kd [nM],koff [s⁻¹],kon [M⁻¹ s⁻¹]
B1,3.2,0.000567,176000
B2,6.3,0.000872,138000
B3,3,0.000309,101000
B4,1.8,0.000311,174000
B5,1.7,0.000261,154000

# Target: T2, human CLEC4E
# Experiment: ELISA, coated protein 1 µg/ml
row,Binder,binding result
1,B1,no binding (tested: 10 µg/ml)
2,B2,no binding (tested: 10 µg/ml)
3,B3,no binding (tested: 10 µg/ml)
4,B4,no binding (tested: 10 µg/ml)
5,B5,no binding (tested: 10 µg/ml)
6,B6,no binding (tested: 10 µg/ml)
7,B7,no binding (tested: 10 µg/ml)
8,B8,no binding (tested: 10 µg/ml)
9,B9,no binding (tested: 10 µg/ml)

# Target: T3, human CLEC4A
# Experiment: ELISA, coated protein 1 µg/ml
row,Binder,binding result
1,B1,no binding (tested: 10 µg/ml)
2,B2,no binding (tested: 10 µg/ml)
3,B3,no binding (tested: 10 µg/ml)
4,B4,no binding (tested: 10 µg/ml)
5,B5,no binding (tested: 10 µg/ml)
6,B6,no binding (tested: 10 µg/ml)
7,B7,no binding (tested: 10 µg/ml)
8,B8,no binding (tested: 10 µg/ml)
9,B9,no binding (tested: 10 µg/ml)

# Target: T4, human CLEC4D
# Experiment: ELISA, coated protein 1 µg/ml
row,Binder,binding result
1,B1,no binding (tested: 10 µg/ml)
2,B2,no binding (tested: 10 µg/ml)
3,B3,no binding (tested: 10 µg/ml)
4,B4,no binding (tested: 10 µg/ml)
5,B5,no binding (tested: 10 µg/ml)
6,B6,no binding (tested: 10 µg/ml)
7,B7,no binding (tested: 10 µg/ml)
8,B8,no binding (tested: 10 µg/ml)
9,B9,no binding (tested: 10 µg/ml)

# Target: T5, human CLEC6A
# Experiment: ELISA, coated protein 1 µg/ml
row,Binder,binding result
1,B1,no binding (tested: 10 µg/ml)
2,B2,no binding (tested: 10 µg/ml)
3,B3,no binding (tested: 10 µg/ml)
4,B4,no binding (tested: 10 µg/ml)
5,B5,no binding (tested: 10 µg/ml)
6,B6,no binding (tested: 10 µg/ml)
7,B7,no binding (tested: 10 µg/ml)
8,B8,no binding (tested: 10 µg/ml)
9,B9,no binding (tested: 10 µg/ml)

# Target: T6, cynomolgus monkey BDCA-2 on cells …
# Experiment: flow cytometry on Jurkat-cynoBDCA-2 cells
row,Binder,EC50 [µg/mL]
1,B10,0.107

# Target: T7, human BDCA-2 on cells (Jurkat-hBDCA-2 …)
# Experiment: flow cytometry on Jurkat-hBDCA-2 cells
row,Binder,EC50 [µg/mL]
1,B10,0.0968

# Target: T7, human BDCA-2 on cells (Jurkat-hBDCA-2 …)
# Experiment: cell-based or functional assay
row,Binder,"EC50, inhibition of CpGA-induced type I interferon (IFNα) production in human PBMC cells [µg/mL]"
1,B1,0.0014
2,B2,0.0011
3,B3,0.0017
4,B4,0.0011
5,B5,0.0011
6,B6,0.0014
7,B7,0.0017
8,B8,0.0011
9,B9,0.0011

# Target: T6, cynomolgus monkey BDCA-2 on cells …
# Experiment: flow cytometry on Jurkat-cynoBDCA-2 cells
# Remark: another data set of the same source
row,Binder,EC50 [µg/mL]
1,B1,0.0943
2,B2,0.0781
3,B3,0.106
4,B4,0.0988
5,B5,0.0383
6,B6,0.101
7,B7,0.0663
8,B8,0.0975
9,B9,0.0688
10,B11,0.158
11,B12,0.252
12,B13,0.31

# Target: T7, human BDCA-2 on cells (Jurkat-hBDCA-2 …)
# Experiment: cell-based or functional assay
# Remark: another data set of the same source
row,Binder,"EC50, inhibition of CpGA-induced type I interferon (IFNα) production in human PBMC cells [µg/mL]"
1,B10,0.0542

# Target: T7, human BDCA-2 on cells (Jurkat-hBDCA-2 …)
# Experiment: flow cytometry on Jurkat-hBDCA-2 cells
# Remark: another data set of the same source
row,Binder,EC50 [µg/mL]
1,B1,0.18
2,B2,0.0442
3,B3,0.0701
4,B4,0.0608
5,B5,0.0222
6,B6,0.066
7,B7,0.0831
8,B8,0.0583
9,B9,0.0456
10,B11,0.0429
11,B12,0.104
12,B14,0.0675
13,B13,0.191
